Among the data in paper PMC3115949 are Km values, retold here.

Substrate in this series: O=P(O)(O)O
Kind of series: cells, lysate or membranes. The note with it: labelled compound, whole yeast cells, 5 min, 30 °C, glucose-energized, Pi 50-2000 µM, proton symport, pH of Km assay not stated.

B1: GmPT2 (Glycine max) (protein)
chain: MAGGQLGVLNALDVAKTQWYHFTAIVIAGMGFFTDAYDLFCISLVTKLLGRLYYTDITNPKPGVLPPNVQAAVTGVALCGTLAGQLFFGWLGDKLGRKRVYGLTLMLMVVCSVASGLSFGDTPKGVMATLCFFRFWLGFGIGGDYPLSATIMSEYANKKTRGAFIAAVFAMQGFGILAGGIVALIVSSAYDHKYDLPSYKDNPAGSKVDSLDYVWRIILMFGAVPAGLTYYWRMKMPETARYTALVAKNAKQAASDMSKVLQVEVEAEEDKLQHMVESEHQKYGLFSKEFAKRHGLHLVGTTVTWFLLDIAFYSQNLFQKDIFSAIGWIPPAQDMNAIHEVYRIARAQTLIALCSTVPGYWFTVAFIDIMGRFAIQLMGFFFMTVFMFALAIPYNHWKNHNNIGFVVMYSFTFFFSNFGPNATTFVVPAEIFPARLRSTCHGISAAAGKAGAIVGAFGFLYAAQSTNPDKVDHGYPTGIGVKNSLIVLGVINFFGMVFTLLVPESKGKSLEELSGENEDDGAEAIEMAGSARTVPV
For B1, the Km (as a rule, the concentration of substrate that gives half-maximal velocity) was determined as 6.63 mM.

B2: GmPT1 (Glycine max) (protein)
chain: MAGGQLGVLNALDVAKTQWYHFTAIVIAGMGFFTDAYDLFCISLVTKLLGRLYYTDIRNPKPGVLPPNVQAAVTGVALCGTLAGQLFFGWLGDKLGRKRVYGLTLMLMVLCSIASGLSFGDTPKGVMATLCFFRFWLDFGIGGDYPLSATIMSEYANKKTRGSFIAAVFAMQGFGIMAGGIVALIVSSAYDHKYDLPSYKDNPAGSKVDSLDYVWRIILMFGAVPAALTYYWRMKMPETARYTALVAKNAKQAASDMSKVLQVEVEAEEDKLQHMVESENQKYGLFSKEFAKRHGLHLVGTTVTWFLLDIAFYSQNLFQKDIFTAIGWIPPAQDMNAIHEVYRIARAQTLIALCSTVPGYWFTVAFIDIIGRFAIQLMGFFFMTVFMFALAIPYNHWKNHNNIGFVVMYSFTFFFSNFGPNATTFVVPAEIFPARLRSTCHGISAAAGKAGAIVGAFGFLYAAQSTNPNKVDHGYPTGIGVKNSLIVLGVINFFGMVFTLLVPESKGKSLEELSGENEDDGAEAIEMAGSARTVPV
For the protein B2, the Km is 6.65 mM.
